Here are results for one substance from PMC11747444.

In this assay the target is recombinant strep-tagged apo-APC/C, dephosphorylated (UniProt Q9H1A4).
Sequence of UniProt Q9H1A4 (Q9H1A4 whole entry, looked up): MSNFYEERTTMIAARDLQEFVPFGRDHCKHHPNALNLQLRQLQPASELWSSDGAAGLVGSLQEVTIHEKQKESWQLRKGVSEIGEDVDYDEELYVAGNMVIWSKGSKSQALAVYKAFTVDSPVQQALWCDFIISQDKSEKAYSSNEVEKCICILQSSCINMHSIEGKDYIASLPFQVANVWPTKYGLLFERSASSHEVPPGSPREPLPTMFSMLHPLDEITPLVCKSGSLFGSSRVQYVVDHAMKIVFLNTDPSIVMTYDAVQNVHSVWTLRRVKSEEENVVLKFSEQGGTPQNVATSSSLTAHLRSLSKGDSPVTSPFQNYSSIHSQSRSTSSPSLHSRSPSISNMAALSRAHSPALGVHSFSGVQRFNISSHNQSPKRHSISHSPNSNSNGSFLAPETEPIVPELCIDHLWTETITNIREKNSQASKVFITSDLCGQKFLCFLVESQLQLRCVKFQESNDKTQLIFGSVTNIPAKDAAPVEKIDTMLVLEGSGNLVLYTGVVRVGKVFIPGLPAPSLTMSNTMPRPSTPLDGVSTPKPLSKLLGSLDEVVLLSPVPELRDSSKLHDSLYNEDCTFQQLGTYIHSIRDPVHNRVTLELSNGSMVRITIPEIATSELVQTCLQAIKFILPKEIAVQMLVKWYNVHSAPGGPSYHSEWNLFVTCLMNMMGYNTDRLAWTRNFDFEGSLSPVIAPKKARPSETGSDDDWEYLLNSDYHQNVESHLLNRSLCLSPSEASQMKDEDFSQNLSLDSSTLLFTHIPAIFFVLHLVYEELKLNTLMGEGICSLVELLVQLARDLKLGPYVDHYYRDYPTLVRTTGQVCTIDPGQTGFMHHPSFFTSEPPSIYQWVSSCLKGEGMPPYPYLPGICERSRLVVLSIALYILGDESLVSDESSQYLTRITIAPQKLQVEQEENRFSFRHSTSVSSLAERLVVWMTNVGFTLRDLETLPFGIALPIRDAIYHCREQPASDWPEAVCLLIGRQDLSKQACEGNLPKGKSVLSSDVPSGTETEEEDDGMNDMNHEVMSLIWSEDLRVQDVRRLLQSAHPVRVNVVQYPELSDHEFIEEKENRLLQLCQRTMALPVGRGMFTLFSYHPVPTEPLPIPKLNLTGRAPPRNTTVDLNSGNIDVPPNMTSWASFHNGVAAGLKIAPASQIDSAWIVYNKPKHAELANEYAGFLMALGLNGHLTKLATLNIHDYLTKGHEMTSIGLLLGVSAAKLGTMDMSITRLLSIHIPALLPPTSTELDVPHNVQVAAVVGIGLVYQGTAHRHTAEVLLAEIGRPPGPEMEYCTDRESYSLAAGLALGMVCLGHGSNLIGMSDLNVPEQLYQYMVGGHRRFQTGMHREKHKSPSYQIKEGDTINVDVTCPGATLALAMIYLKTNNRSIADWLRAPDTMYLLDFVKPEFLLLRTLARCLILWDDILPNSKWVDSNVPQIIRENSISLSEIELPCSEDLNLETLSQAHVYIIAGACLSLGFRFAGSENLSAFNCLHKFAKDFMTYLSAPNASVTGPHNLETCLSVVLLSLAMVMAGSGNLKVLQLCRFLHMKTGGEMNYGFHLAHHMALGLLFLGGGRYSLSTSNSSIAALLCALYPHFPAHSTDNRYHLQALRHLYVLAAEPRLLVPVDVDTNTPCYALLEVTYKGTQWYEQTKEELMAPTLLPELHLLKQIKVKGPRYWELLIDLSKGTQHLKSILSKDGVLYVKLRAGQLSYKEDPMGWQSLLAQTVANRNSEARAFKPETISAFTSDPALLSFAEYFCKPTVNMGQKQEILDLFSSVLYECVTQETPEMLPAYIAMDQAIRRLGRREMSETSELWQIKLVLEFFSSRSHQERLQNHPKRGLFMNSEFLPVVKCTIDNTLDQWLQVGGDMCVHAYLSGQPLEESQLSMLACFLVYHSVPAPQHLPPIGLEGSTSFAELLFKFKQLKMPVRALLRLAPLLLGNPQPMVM

“CDK1/CKS1/cyclin B1^wt complex (CCC^wt) (from UniProt P06493 1-297; P61024 1-79; P14635 1-433)”: the phosphosites on dephosphorylated recombinant APC/C after in vitro phosphorylation, by mass spectrometry is 28 phosphosites.
